Data: US20250296959A1, “B7-H3 TARGETING PEPTIDES AND CONSTRUCTS THEREOF” (Mariana Oncology Inc., priority 2024, published 2025)
Starred links: 1 amine or outer side, 2 acyl side, 3 side chain; linkers in the order of their positions; H or OH if unused. Positions of bridges follow the written chain, without caps; N, C: chain ends. Non-standard residues stand in square brackets, D forms with d. *: point of attachment. Ala(piperidin-4-yl) = O=C([C@H](CC1CCN([*:3])CC1)N[*:1])[*:2]; DOTA = O=C(O)CN1CCN(CC(=O)O)CCN(CC(=O)*)CCN(CC(=O)O)CC1; Trp(5-F) = N[C@@H](Cc1c[nH]c2ccc(F)cc12)C(=O)O; Pro(cis-4-F) = O=C(O)[C@@H]1C[C@H](F)CN1; Ala(4-THP) = N[C@@H](CC1CCOCC1)C(=O)O; AEF = NCCOc1ccc(C[C@H](N)C(=O)O)cc1; Val(3-OH) = CC(C)(O)[C@H](N)C(=O)O; 4Pal = N[C@@H](Cc1ccncc1)C(=O)O; aThr = C[C@H](O)[C@H](N)C(=O)O; Tle = CC(C)(C)[C@H](N)C(=O)O; hLeu = CC(C)CC[C@H](N)C(=O)O; Nle = CCCC[C@H](N)C(=O)O; Sar = CNCC(=O)O

How the values were obtained:
[1] = target: T1, Biotinylated human 4Ig B7-H3 (human, UniProt Q5ZPR3 29-461, limits assumed, biotinylated (site not stated)); assay: SPR 25C; C = 10<KD<=100 nM
T1 construct: Protein captured on the SA chip for SPR; also called 4lg-B7-H3; B7-H3 isoform 4Ig
T1 sequence: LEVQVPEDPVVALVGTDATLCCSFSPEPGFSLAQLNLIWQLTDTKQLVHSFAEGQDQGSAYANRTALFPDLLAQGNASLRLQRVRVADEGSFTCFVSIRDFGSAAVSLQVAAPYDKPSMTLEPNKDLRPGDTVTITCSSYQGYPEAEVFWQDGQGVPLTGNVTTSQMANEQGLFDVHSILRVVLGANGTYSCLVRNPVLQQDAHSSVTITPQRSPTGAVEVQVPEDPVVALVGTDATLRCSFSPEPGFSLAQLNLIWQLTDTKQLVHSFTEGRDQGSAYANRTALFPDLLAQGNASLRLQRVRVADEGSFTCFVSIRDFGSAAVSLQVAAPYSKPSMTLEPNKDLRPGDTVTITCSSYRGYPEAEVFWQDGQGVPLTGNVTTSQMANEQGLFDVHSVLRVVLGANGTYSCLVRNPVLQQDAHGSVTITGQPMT

[2] = target: T1, Biotinylated human 4Ig B7-H3; assay: SPR 37C; D = 100<KD<=300 nM
[3] = target: T1, Biotinylated human 4Ig B7-H3; assay: SPR 25C; D = 100<KD<=300 nM
[4] = target: T1, Biotinylated human 4Ig B7-H3; assay: SPR 25C; A = KD<=1.0 nM
[5] = target: T1, Biotinylated human 4Ig B7-H3; assay: SPR 37C; A = KD<=1.0 nM
2Ig B7-H3 [6] = target: T2, 2Ig B7-H3 (UniProt Q5ZPR3-2 29-245, limits assumed); assay: SPR, 37C
T2 construct: also called 2lg-B7-H3; B7-H3 isoform 2Ig
T2 sequence (looked up): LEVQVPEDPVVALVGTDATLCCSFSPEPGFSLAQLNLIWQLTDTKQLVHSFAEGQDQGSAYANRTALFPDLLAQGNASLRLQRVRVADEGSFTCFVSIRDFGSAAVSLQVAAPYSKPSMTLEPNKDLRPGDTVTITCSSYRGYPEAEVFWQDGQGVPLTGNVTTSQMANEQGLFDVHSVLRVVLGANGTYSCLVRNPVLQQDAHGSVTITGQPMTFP

[7] = target: T1, Biotinylated human 4Ig B7-H3; assay: SPR 25C; B = 1.0<KD<=10 nM
[8] = target: Biotinylated human 4Ig B7-H3 (human) (UniProt Q5ZPR3); assay: SPR 37C; C = 10<KD<=100 nM
[9] = target: T1, Biotinylated human 4Ig B7-H3; assay: SPR 37C; C = 10<KD<=100 nM
2Ig B7-H3 [10] = target: T2, 2Ig B7-H3; assay: SPR, 25C

B1: Cpd 93 (peptide)
peptide: Ac-[Nle]YCVGKYDVYCWF[aThr][dK](DOTA)-NH2
modifications: disulfide 3-11
B1 showed a KD [1] of 10 to 100 nM.

B2: Cpd 1 (peptide)
peptide: Ac-MYCVGKYDVYCWF-NH2
modifications: disulfide 3-11
SMILES: CSCC[C@H](NC(C)=O)C(=O)N[C@@H](Cc1ccc(O)cc1)C(=O)N[C@H]1CSSC[C@@H](C(=O)N[C@@H](Cc2c[nH]c3ccccc23)C(=O)N[C@@H](Cc2ccccc2)C(N)=O)NC(=O)[C@H](Cc2ccc(O)cc2)NC(=O)[C@H](C(C)C)NC(=O)[C@H](CC(=O)O)NC(=O)[C@H](Cc2ccc(O)cc2)NC(=O)[C@H](CCCCN)NC(=O)CNC(=O)[C@H](C(C)C)NC1=O
Work on B2 yielded a KD [2] of 100 to 300 nM and a KD [3] of 100 to 300 nM.

B3: Cpd 295 (peptide)
peptide: Ac-[hLeu]YCVGK[AEF](DOTA)DVYC[Trp(5-F)]FT-NH2
modifications: disulfide 3-11
SMILES: CC(=O)N[C@@H](CCC(C)C)C(=O)N[C@@H](Cc1ccc(O)cc1)C(=O)N[C@H]1CSSC[C@@H](C(=O)N[C@@H](Cc2c[nH]c3ccc(F)cc23)C(=O)N[C@@H](Cc2ccccc2)C(=O)N[C@H](C(N)=O)[C@@H](C)O)NC(=O)[C@H](Cc2ccc(O)cc2)NC(=O)[C@H](C(C)C)NC(=O)[C@H](CC(=O)O)NC(=O)[C@H](Cc2ccc(OCCNC(=O)CN3CCN(CC(=O)O)CCN(CC(=O)O)CCN(CC(=O)O)CC3)cc2)NC(=O)[C@H](CCCCN)NC(=O)CNC(=O)[C@H](C(C)C)NC1=O
B3 was tested, and the KD [4] was at most 1 nM and the KD [5] was at most 1 nM.

B4: Cpd 268 (peptide)
peptide: Ac-[hLeu]YCIGK(DOTA)[4Pal]DVYC[Trp(5-F)]F[Pro(cis-4-F)]-NH2
modifications: disulfide 3-11
For B4, the Kd (2Ig B7-H3 [6]) was 7000 nM and the KD [7] was 1 to 10 nM.

B5: Cpd 322 (peptide)
peptide: Ac-[hLeu]YC[Tle]GK(DOTA)[Ala(4-THP)]DVYC[Trp(5-F)]F[Val(3-OH)]-OH
modifications: disulfide 3-11 (inferred)
B5 showed a KD [8] of 10 to 100 nM.

B6: Cpd 26 (peptide)
peptide: Ac-[Nle]YCV[Sar]KYDVYCWF-NH2
modifications: disulfide 3-11
B6 showed a KD [9] of 10 to 100 nM and a KD [1] of 10 to 100 nM.

B7: Cpd 301 (peptide)
peptide: Ac-[hLeu]YCVG[Ala(piperidin-4-yl)][AEF](DOTA)DVYC[Trp(5-F)]FP-NH2
modifications: disulfide 3-11
SMILES: CC(=O)N[C@@H](CCC(C)C)C(=O)N[C@@H](Cc1ccc(O)cc1)C(=O)N[C@H]1CSSC[C@@H](C(=O)N[C@@H](Cc2c[nH]c3ccc(F)cc23)C(=O)N[C@@H](Cc2ccccc2)C(=O)N2CCC[C@H]2C(N)=O)NC(=O)[C@H](Cc2ccc(O)cc2)NC(=O)[C@H](C(C)C)NC(=O)[C@H](CC(=O)O)NC(=O)[C@H](Cc2ccc(OCCNC(=O)CN3CCN(CC(=O)O)CCN(CC(=O)O)CCN(CC(=O)O)CC3)cc2)NC(=O)[C@H](CC2CCNCC2)NC(=O)CNC(=O)[C@H](C(C)C)NC1=O
Work on B7 yielded a Kd (2Ig B7-H3 [10]) of 860 nM.
